Patent publication US20220403023A1 (WUXI BIOLOGICS IRELAND, published 2022)

Assays:
PD-1.his [1] = molecular target: T1, PD-1.his (Homo sapiens (Human), UniProt Q15116 25-170); assay: ELISA, protein coated at 1 µg/mL
HER3.his [2] = molecular target: T2, HER3.his (Homo sapiens (Human), UniProt P21860 20-643); assay: ELISA, protein coated at 1 µg/mL
HSA. [3] = molecular target: T3, HSA. (UniProt P02768 25-609); assay: ELISA, protein coated at 1 µg/mL
[4] = molecular target: T4, CD47 on human red blood cells (human, UniProt Q08722 19-323); assay: FACS on human red blood cells, goat anti-human IgG-Fc PE
T4 construct: whole, on cells; also called human RBCs; hRBC
Description: (§1) The cells were washed twice with 180 μL 1% BSA-PBS. The secondary antibody, Goat Anti-human IgG-Fc PE was added to re-suspend cells and incubated at 4° C. in the dark for 30 min followed by washing with 180 μL 1% BSA-PBS. At the end, the cells were re-suspended in 100 μL 1% BSA-PBS, and the fluorescence intensity was measured by FACS (BD Canto II) and analyzed by FlowJo Version software. The binding EC50s were calculated by using GraphPad Prism software equation: Nonlinear regression (curve fit)—log (agonist) vs. response—Variable slope.

Factor Eight = assay: non-specific binding ELISA, protein coated 1 µg/mL, lead antibody at 10 ug/ml
Description: (§2) The 96-well high binding plates were coated with 14 different proteins at 1 μg/mL at 4° C. overnight and blocked with 2% BSA-PBS for 1 hr. […] Then the Goat anti-human IgG-Fc-HRP secondary antibody was added and incubated for 1 hr. The TMB peroxidase substrate solution was added and then reaction was stopped after 12 minutes using 2M HCl. All incubation steps were performed at room temperature, and the plates were washed 5 times with PBST at pH 7.4 between steps. The absorbance of testing samples was measured at 450 nm with a multiwall plate reader (SpectraMax® M5e).

FGFR.his = assay: as above
Description: as §2

CD147.his = assay: as above
Description: as §2

PD-1.his [5] = molecular target: T1, PD-1.his; assay: as above
Description: as §2

CTLA4.his = assay: as above
CTLA4.his, sequence (P16410 36-161): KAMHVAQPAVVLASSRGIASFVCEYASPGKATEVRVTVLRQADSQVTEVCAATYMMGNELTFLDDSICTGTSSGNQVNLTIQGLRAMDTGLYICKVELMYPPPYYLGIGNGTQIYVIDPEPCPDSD
Description: as §2

VEGFR2.his = assay: as above
VEGFR2.his, sequence (P35968 20-764): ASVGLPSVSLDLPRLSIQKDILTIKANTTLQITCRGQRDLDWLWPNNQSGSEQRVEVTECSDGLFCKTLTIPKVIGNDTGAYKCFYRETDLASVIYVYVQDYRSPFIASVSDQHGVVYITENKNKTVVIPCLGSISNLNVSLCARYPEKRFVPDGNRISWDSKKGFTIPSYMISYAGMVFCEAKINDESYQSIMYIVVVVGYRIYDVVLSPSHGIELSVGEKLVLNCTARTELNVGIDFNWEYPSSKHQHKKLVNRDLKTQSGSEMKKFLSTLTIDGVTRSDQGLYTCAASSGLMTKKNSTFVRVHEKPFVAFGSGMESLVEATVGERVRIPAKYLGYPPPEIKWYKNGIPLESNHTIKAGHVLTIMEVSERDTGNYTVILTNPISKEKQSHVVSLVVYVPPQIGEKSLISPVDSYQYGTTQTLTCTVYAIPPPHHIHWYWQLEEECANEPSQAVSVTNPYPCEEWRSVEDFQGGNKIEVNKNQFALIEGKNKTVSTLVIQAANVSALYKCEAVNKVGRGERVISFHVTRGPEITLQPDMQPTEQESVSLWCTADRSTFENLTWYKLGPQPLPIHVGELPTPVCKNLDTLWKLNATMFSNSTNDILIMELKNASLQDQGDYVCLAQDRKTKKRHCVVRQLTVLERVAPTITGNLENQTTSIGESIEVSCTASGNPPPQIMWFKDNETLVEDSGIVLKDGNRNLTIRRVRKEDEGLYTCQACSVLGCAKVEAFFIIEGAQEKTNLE
Description: as §2

CD22.his = assay: as above
Description: as §2

VEGF.his = assay: as above
VEGF.his, sequence (P15692 whole entry): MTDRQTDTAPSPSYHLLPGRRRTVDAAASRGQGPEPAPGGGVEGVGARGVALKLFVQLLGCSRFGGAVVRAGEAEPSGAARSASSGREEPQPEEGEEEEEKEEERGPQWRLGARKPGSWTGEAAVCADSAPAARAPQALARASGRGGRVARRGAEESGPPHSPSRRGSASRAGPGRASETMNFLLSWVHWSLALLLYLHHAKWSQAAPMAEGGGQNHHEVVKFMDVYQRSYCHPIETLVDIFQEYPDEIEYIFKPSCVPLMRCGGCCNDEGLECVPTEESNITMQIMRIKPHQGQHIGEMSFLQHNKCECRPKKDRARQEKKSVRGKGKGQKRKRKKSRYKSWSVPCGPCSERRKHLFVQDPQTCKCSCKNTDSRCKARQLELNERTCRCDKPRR
Description: as §2

CD3.his = assay: as above
Description: as §2

HER3.his [6] = molecular target: T2, HER3.his; assay: as above
Description: as §2

OX40.his = assay: as above
OX40.his, sequence (P43489 29-214): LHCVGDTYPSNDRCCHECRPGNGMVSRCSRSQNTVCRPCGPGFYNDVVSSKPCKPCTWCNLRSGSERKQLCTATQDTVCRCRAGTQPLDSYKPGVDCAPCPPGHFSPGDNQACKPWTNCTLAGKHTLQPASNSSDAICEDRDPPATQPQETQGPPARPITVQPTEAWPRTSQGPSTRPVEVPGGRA
Description: as §2

4-1B8.his = assay: as above
4-1B8.his, sequence (Q07011 24-186): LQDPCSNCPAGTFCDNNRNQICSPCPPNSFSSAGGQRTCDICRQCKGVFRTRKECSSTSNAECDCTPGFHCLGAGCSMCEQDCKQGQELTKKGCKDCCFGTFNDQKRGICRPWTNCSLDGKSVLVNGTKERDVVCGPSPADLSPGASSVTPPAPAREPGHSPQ
Description: as §2

CD40.his = assay: as above
CD40.his, sequence (P25942 21-193): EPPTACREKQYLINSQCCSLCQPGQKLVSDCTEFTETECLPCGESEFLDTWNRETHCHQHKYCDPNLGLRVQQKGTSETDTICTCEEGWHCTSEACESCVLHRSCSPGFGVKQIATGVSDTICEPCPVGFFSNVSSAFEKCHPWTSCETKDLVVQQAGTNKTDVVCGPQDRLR
Description: as §2

HSA. [7] = molecular target: T3, HSA.; assay: as above
Description: as §2

human CD47 ECD protein [8] = molecular target: T5, human CD47 ECD protein (human, UniProt Q08722 19-139, limits assumed); assay: ELISA on plate-coated human CD47 ECD (1 µg/mL), goat anti-human IgG-Fc-HRP, OD450
T5 construct: extracellular domain; The assays say only 'human CD47 ECD protein' / 'Human CD47 protein'; 55 kDa was used as molecular weight in SPR; also called human CD47 protein; W345-hPro1.ECD (sino)
Description: Then the Goat anti-human IgG-Fc-HRP secondary antibody was added and incubated for 1 hr. […] All incubation steps were performed at room temperature, and the plates were washed 5 times with PBST at pH 7.4 between steps.

[9] = molecular target: T6, human CD47 on engineered CHO-K1 cells (human, UniProt Q08722 19-323); assay: FACS on CHO-K1 cells expressing human CD47 (CHOK1-huCD47), goat anti-human IgG-Fc PE
T6 construct: whole, on cells; also called human CD47-expressing cells
Description: as §1, with “Briefly, the engineered CD47-expressing cells were coated into 96-well U-bottom plates at a density of 1×10⁵ cells/well and centrifuged at 1500 rpm at 4° C. for 4 min before removing the supernatant. […] The cells” for “The cells”

human CD47 ECD protein [10] = molecular target: T5, human CD47 ECD protein; assay: SPR Biacore T200, antibody captured on anti-human IgG Fc chip, human CD47 as analyte, 1:1 model
Description: Each antibody was captured on an anti-human IgG Fc antibody immobilized CMS sensor chip (GE). Human CD47 protein at different concentrations were injected over the sensor chip at a flow rate of 30 uL/min for an association phase of 180 s, followed by 3600 s dissociation. The chip was regenerated by 10 mM glycine (pH 1.5) after each binding cycle. The sensorgrams of blank surface and buffer channel were subtracted from the test sensorgrams. The experimental data was fitted by 1:1 model using Langmiur analysis. Molecular weight of 55 kDa was used to calculate the molar concentration of analyte antigen.

[11] = molecular target: T7, cynomolgus monkey CD47 on engineered CHO-K1 cells (cynomolgus monkey, UniProt A0A5F8AK49 19-323 (rhesus entry)); assay: FACS on CHO-K1 cells expressing cynomolgus CD47 (CHOK1-cynoCD47), goat anti-human IgG-Fc PE
T7 construct: whole, on cells; also called cyno CD47 expressing cells; cynomolgus monkey CD47-expressing cells
Description: as §1, with “Briefly, the engineered CD47-expressing cells were coated into 96-well U-bottom plates at a density of 1×10⁵ cells/well and centrifuged at 1500 rpm at 4° C. for 4 min before removing the supernatant. […] The cells” for “The cells”

human CD47 ECD protein [12] = molecular target: T5, human CD47 ECD protein; assay: competition ELISA: plate-coated human CD47 ECD (1 µg/mL), antibody titrated together with human SIRPα-His (1 µg/mL), bound SIRPα detected with anti-His-HRP
Description: 96-well plates were coated with human CD47 ECD at 1 μg/mL at 4° C. overnight and blocked with 2% BSA-PBS for 1 hr. […] The TMB peroxidase substrate solution was added and then reaction was stopped after 12 minutes using 2M HCl. All incubation steps were performed at room temperature, and the plates were washed with PBST between steps. The absorbance of the testing samples was measured at 450 nm with a multiwall plate reader. The competitive binding IC50s were calculated by using GraphPad Prism software equation: Nonlinear regression (curve fit)—log (antagonist) vs. response—Variable slope.

[13] = molecular target: T6, human CD47 on engineered CHO-K1 cells; assay: competition FACS: CHO-K1 cells expressing human CD47, antibody titrated together with human SIRPα-His (1 µg/mL), bound SIRPα detected with anti-His-biotin and streptavidin-PE
Description: At the end, the cells were re-suspended in 100 μL 1% BSA-PBS, and the fluorescence intensity was measured by FACS (BD Canto II) and analyzed by FlowJo Version software. The competitive binding IC50s were calculated by using GraphPad Prism software equation: Nonlinear regression (curve fit)—log (antagonist) vs. response—Variable slope.

T1 sequence (Q15116 25-170 limits assumed): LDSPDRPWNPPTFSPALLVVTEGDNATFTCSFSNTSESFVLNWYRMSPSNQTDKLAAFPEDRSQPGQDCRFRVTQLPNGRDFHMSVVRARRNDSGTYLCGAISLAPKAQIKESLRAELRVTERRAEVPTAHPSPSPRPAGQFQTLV

B1: W3455-4.9.9-uIgG4.SPL (antibody, V domains shown)
VH: EVQLLESGGGLVQPGGSLRLSCAASGFTFSNFAMSWVRQAPGKGLEWVSTISASGGRTFYADSVKGRITISRDNSKNTLFLQMNGLRAEDTAVYYCAKEGSFGEGVDPWGQGTLVTVSS
VL: SYEMTQPPSVSVSPGQTARITCSGDALPKKYAYWYQQKSGQAPVLVIYEDNKRPSGIPERFSGSSSGTMATLTISGAQVEDEADYYCYSTDISGNHWVFGGGTELTVLG
notes: Fully human anti-CD47 antibody; also called W3455 antibody; WBP3455-4.9.9-uIgG4.SPL
binding result (PD-1.his [1]): no binding (tested: 10 ug/ml)
binding result (HER3.his [2]): no binding (tested: 10 ug/ml)
binding result (HSA. [3]): no binding (tested: 10 ug/ml)
EC50 [4]: 76.7 nM
ELISA-OD450 (Factor Eight): 0.0498
ELISA-OD450 (FGFR.his): 0.138
ELISA-OD450 (CD147.his): 0.0463
ELISA-OD450 (PD-1.his [5]): 0.227
ELISA-OD450 (CTLA4.his): 0.0573
ELISA-OD450 (VEGFR2.his): 0.0452
ELISA-OD450 (CD22.his): 0.0478
ELISA-OD450 (VEGF.his): 0.0475
ELISA-OD450 (CD3.his): 0.0527
ELISA-OD450 (HER3.his [6]): 0.0462
ELISA-OD450 (OX40.his): 0.0487
ELISA-OD450 (4-1B8.his): 0.0551
ELISA-OD450 (CD40.his): 0.209
ELISA-OD450 (HSA. [7]): 0.324
EC50 (human CD47 ECD protein [8]): 0.038 nM
EC50 [9]: 2.99 nM
Kd (human CD47 ECD protein [10]): 0.0223 nM
koff (human CD47 ECD protein [10]): 2.34e-05 s⁻¹
kon (human CD47 ECD protein [10]): 1.05e+06 M⁻¹ s⁻¹
EC50 [11]: 2.71 nM
IC50 (human CD47 ECD protein [12]): 3.21 nM
IC50 [13]: 20.1 nM
